Laboratory results taken from patent US20030017489.

Target: recombinant Histone H3

B1: hCARM-1 (SEQ ID NO:9) (protein)
chain: MAAAAAAVGPGAGGAGSAVPGGAGPCATVSVFPGARLLTIGDANGEIQRHAEQQALRLEVRAGPDSAGIALYSHEDVCVFKCSVSRETECSRVGKQSFIITLGCNSVLIQFATPNDFCSFYNILKTCRGHTLERSVFSERTEESSAVQYFQFYGYLSQQQNMMQDYVRTGTYQRAILQNHTDFKDKIVLDVGCGSGILSFFAAQAGARKIYAVEASTMAQHAEVLVKSNNLTDRIVVIPGKVEEVSLPEQVDIIISEPMGYMLFNERMLESYLHAKKYLKPSGNMFPTIGDVHLAPFTDEQLYMEQFTKANFWYQPSFHGVDLSALRGAAVDEYFRQPVVDTFDIRILMAKSVKYTVNFLEAKEGDLHRIEIPFKFHMLHSGLVHGLAFWFDVAFIGSIMTVWLSTAPTEPLTHWYQVRCLFQSPLFAKAGDTLSGTCLLIANKRQSYDISIVAQVDQTGSKSSNLLDLKNPFFRYTGTTPSPPPGSHYTSPSENMWNTGSTYNLSSGMAVAGMPTAYDLSSVIASGSSVGHNNLIPLANTGIVNHTHSRMGSIMSTGIVQGSSGAQGSGGGSTSAHYAVNSQFTMGGPAISMASPMSIPTNTMHYGS
  methylation of Histone H3 (in vitro methylation reaction, SDS-PAGE, exposed to film): Our experiments showed that hCARM-1 methylates Histone H3 efficiently
